Assays:
[1] = biological target: Bunyamwera virus (BUNV) Gc head domain (aa 478–721) (Bunyamwera virus) (UniProt P04505); assay: crystal structure
[2] = biological target: La Crosse virus (LACV) Gc head domain (aa 477–722), tryptic fragment of the variable region (aa 477–911) (La Crosse virus) (UniProt Q8JPR1); assay: crystal structure

Chain of Bunyamwera virus (BUNV) Gc head domain (aa 478–721) (P04505 478-721): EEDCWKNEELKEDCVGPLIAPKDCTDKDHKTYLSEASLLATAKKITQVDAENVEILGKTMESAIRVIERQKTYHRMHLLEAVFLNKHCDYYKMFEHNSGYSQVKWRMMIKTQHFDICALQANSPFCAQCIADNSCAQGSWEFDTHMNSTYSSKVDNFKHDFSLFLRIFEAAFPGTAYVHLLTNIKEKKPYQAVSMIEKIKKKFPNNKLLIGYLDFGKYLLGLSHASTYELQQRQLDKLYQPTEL
Chain of La Crosse virus (LACV) Gc head domain (aa 477–722), tryptic fragment of the variable region (aa 477–911) (Q8JPR1 477-722): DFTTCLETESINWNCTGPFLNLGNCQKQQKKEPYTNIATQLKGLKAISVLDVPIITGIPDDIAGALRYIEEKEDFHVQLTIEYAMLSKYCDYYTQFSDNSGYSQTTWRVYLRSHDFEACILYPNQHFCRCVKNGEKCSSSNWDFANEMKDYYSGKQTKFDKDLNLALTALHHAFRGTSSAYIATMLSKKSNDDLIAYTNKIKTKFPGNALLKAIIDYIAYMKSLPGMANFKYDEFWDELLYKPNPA

Row | Substance | stoichiometry N [1] | stoichiometry N [2]
1 | Bunyamwera virus (BUNV) Gc head domain (aa 478–721) (from UniProt P04505 478-721) (domain or fragment) | 3 | 
2 | La Crosse virus (LACV) Gc head domain (aa 477–722), tryptic fragment of the variable region (aa 477–911) (from UniProt Q8JPR1 477-722) (domain or fragment) |  | 3
